system: TO-3-N3-2 (biotin conjugate); assay: pull-down binding Z-score (relative to library population); higher = stronger binding; settings: RNA library: Library-2
Procedure, shortened: (§1)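 Cy5- or Cy3-end-labelled RNA library (1 μg) was heat-folded in phosphate/NaCl/KCl buffer and incubated 60 min at 25 °C with streptavidin beads carrying 100 pmol biotin-conjugated small molecule. After three washes, bound RNA was eluted in hot SDS and hybridised 20 h at 55.5 °C to a DNA barcode microarray. Binding was scored by subtracting a beads-only control, averaging barcoded replicate probes after dropping highest and lowest, and converting to a Z-score against library mean and standard deviation.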

Row | Sequence | pull-down binding Z-score
1 | CAGUGCUUUUAGAAAAUUUGUGUG [hsa-mir-581] | 0.00216
2 | CAGUGGCAGAUUUUCCCAUAG [hsa-mir-4727] | -0.261
3 | CAGUGGCAUCUGUCAUUG [hsa-mir-4663] | -0.425
4 | CAGUGGGGACAUG [hsa-mir-4531] | 1.52
5 | CAGUGGUGCCAUCUCCCCUG [hsa-mir-5008] | -0.353
6 | CAGUGUUAGCUCCAGAAGCAUUG [hsa-mir-3170] | -0.107
7 | CAGUUGUACUGUGGCUG [hsa-mir-1291] | 0.154
8 | CAUACAUAUGCCUACUACUACUUUCAUAUGUAGGCAUAUGUAUG [hsa-mir-7852] | -0.144
9 | CAUACAUUUUGAAUAUGUAUG [hsa-mir-299] | -0.504
10 | CAUAUGUAUGUAUGUAUGUCUGUUACACAUAUG [hsa-mir-3688-1] | -0.0225
11 | CAUAUGUGUAACAGACAUACAUACAUACAUAUG [hsa-mir-3688-2] | -0.463
12 | CAUCACUGGAAUGUUCCAGCGACU [hsa-mir-3654] | -0.469
13 | CAUCAUUUGCACUACUGAUACUUGGGGUCAGAUAAUUGUUUGUGGUG [hsa-mir-4447] | -0.334
14 | CAUCCCGGACGGCCUGUGAGGGAUG [hsa-mir-4787] | 0.0114
15 | CAUGAGCCCUUUGGAAAGGUCUCGUG [hsa-mir-4711] | -0.105
16 | CAUGAUUUGGAAAAAUUACUG [hsa-mir-6128] | -0.0805
17 | CAUGCAGCAUGCUUGUCUG [hsa-mir-767] | -0.377
18 | CAUGCAGGCCACACUGACGGUAACGUUGCAGG [hsa-mir-431] | 0.263
19 | CAUGCAUGUGUCUAGAAAUAUGUUUU [hsa-mir-507] | 0.0237
20 | CAUGCGCUAUCUCUGUGUCGUAUG [hsa-mir-380] | -0.301
21 | CAUGUAUGUGUAUAUACAUAUAUAUG [hsa-mir-297] | -0.125
22 | CAUGUGCUGAGUUCGUGCCAUAUG [hsa-mir-654] | -0.228
23 | CAUGUGGUGGAACGAUGGAAACGGAACAUG [hsa-mir-218-2] | -0.027
24 | CAUGUUAAGUGUUGUCCUACAG [hsa-mir-5087] | -0.142
25 | CAUUAACGUGGACCAGACAAUAUUAAUG [hsa-mir-4491] | -0.12
26 | CAUUACUAAACUCAGUAAUG [hsa-mir-451b] | -0.862
27 | CAUUCACAUAGACUAUAAUUGAAUG [hsa-mir-652] | -0.353
28 | CAUUCUUUGCUA [hsa-mir-567] | -0.257
29 | CAUUGGUGUAAAGCUGGAGACCCACUG [hsa-mir-324] | 0.0332
30 | CAUUGUAACAUGAUAGUG [hsa-mir-4264] | -0.295

system: TO-N3 (biotin conjugate); assay: as above; settings: RNA library: Library-2
Procedure, shortened: as §1

Row | Sequence | pull-down binding Z-score
31 | CAGCCUGUUGUCAAGGCUG [hsa-mir-3130-1] | 0.712
32 | CAGCCUUGACAACAGGCUG [hsa-mir-3130-2] | 0.391
33 | CAGCUACACAAGCUG [hsa-mir-631] | -0.53
34 | CAGCUGUUGUCUCCAGAGCAUUCCAGCUG [hsa-mir-191] | 0.648
35 | CAGCUUGCUCUGCUUU [hsa-mir-4303] | -0.189
36 | CAGGAGUGGACACCUG [hsa-mir-1246] | -0.198
37 | CAGGAUUAGUGCUUAUGCUAAGAUGUCUUCACUG [hsa-mir-6773] | -0.75
38 | CAGGCAGUGGAGUUACUU [hsa-mir-600] | 1.01
39 | CAGGCCAGGGGCAGACAGUGGACAGAGAACAGUGCCCAAGACCACUG [hsa-mir-378e] | 1.27
40 | CAGGCGGGGCAGCCCAAUGCCAUGGGCCUGAU [hsa-mir-4695] | 1.32
41 | CAGGCUGCUAAACAACAGAACGAGCACUG [hsa-mir-378f] | -0.0846
42 | CAGGCUGGUCUCAAACUCCUGGUCUG [hsa-mir-1285-1] | -0.217
43 | CAGGCUGUGGCUCUCUGAAAGUC [hsa-mir-148b] | 1.09
44 | CAGGGAACUUUAAAACC [hsa-mir-4324] | 0.483
45 | CAGGGCGGUGCGGCAGCCGCCACC [hsa-mir-3621] | 1.07
46 | CAGGGGUUCUGAUAAACCCUUC [hsa-mir-6738] | 0.458
47 | CAGGUAGUUUUGGCAUGACUCUACUG [hsa-mir-20b] | 0.556
48 | CAGGUGCCUCAAAGGGCAUCCCACCUG [hsa-mir-3151] | -0.673
49 | CAGGUGUUCUUAAAAUCACCUG [hsa-mir-875] | -0.806
50 | CAGUAAGCCUUGACUUAUGGCUAAAUGCUUC [hsa-mir-4273] | 0.0209
51 | CAGUACUGGUCUUAGACUG [hsa-mir-554] | 0.368
52 | CAGUAUGAAUGAAUUCAUGAUACUG [hsa-mir-3607] | -0.881

Row | Sequence | pull-down binding Z-score
53 | CAGUCAGUAAAUAUUUUUUUGUGAAUG [hsa-mir-511] | -0.146
54 | CAGUCCUGAGAUGCAGGGACUG [hsa-mir-4799] | -0.644
55 | CAGUGAACUAUCAUUGUGCCACUG [hsa-mir-1254-1] | 0.135
56 | CAGUGACAUGCGUUUAAC [hsa-mir-4485] | 0.394
57 | CAGUGAGCCAAGAUCGUGCCACUG [hsa-mir-1273d] | -0.147
58 | CAGUGAGCUAUGAUCAUGUCCCUG [hsa-mir-1254-2] | 0.105
59 | CAGUGCACCUUCAUGAACCG [hsa-mir-938] | 0.758
60 | CAGUGCUUUUAGAAAAUUUGUGUG [hsa-mir-581] | -0.558
61 | CAGUGGCAGAUUUUCCCAUAG [hsa-mir-4727] | -0.439
62 | CAGUGGCAUCUGUCAUUG [hsa-mir-4663] | -0.508
63 | CAGUGGGGACAUG [hsa-mir-4531] | 1.77
64 | CAGUGGUGCCAUCUCCCCUG [hsa-mir-5008] | -0.122
65 | CAGUGUUAGCUCCAGAAGCAUUG [hsa-mir-3170] | 0.171
66 | CAGUUGUACUGUGGCUG [hsa-mir-1291] | 0.076
67 | CAUACAUAUGCCUACUACUACUUUCAUAUGUAGGCAUAUGUAUG [hsa-mir-7852] | -0.8
68 | CAUACAUUUUGAAUAUGUAUG [hsa-mir-299] | 0.336
69 | CAUAUGUAUGUAUGUAUGUCUGUUACACAUAUG [hsa-mir-3688-1] | -0.818
70 | CAUAUGUGUAACAGACAUACAUACAUACAUAUG [hsa-mir-3688-2] | -1.02
71 | CAUCACUGGAAUGUUCCAGCGACU [hsa-mir-3654] | -0.267
72 | CAUCAUUUGCACUACUGAUACUUGGGGUCAGAUAAUUGUUUGUGGUG [hsa-mir-4447] | -0.914
73 | CAUCCCGGACGGCCUGUGAGGGAUG [hsa-mir-4787] | 1.1
74 | CAUGAGCCCUUUGGAAAGGUCUCGUG [hsa-mir-4711] | 0.16

Reference: the supplement of paper PMC11865577
